Results on 22 molecules are retold here after patent EP3831849A1 (LamKap Bio beta AG, dated 2021).

Experiment [1] addresses T1, human CEACAM5 expressed on MKN-45 wt cells (human, UniProt P06731 35-702).
T1 construct: MKN-45 cells also express CD47 and CEACAM6; also called CEACAM5 on MKN45
T1 sequence: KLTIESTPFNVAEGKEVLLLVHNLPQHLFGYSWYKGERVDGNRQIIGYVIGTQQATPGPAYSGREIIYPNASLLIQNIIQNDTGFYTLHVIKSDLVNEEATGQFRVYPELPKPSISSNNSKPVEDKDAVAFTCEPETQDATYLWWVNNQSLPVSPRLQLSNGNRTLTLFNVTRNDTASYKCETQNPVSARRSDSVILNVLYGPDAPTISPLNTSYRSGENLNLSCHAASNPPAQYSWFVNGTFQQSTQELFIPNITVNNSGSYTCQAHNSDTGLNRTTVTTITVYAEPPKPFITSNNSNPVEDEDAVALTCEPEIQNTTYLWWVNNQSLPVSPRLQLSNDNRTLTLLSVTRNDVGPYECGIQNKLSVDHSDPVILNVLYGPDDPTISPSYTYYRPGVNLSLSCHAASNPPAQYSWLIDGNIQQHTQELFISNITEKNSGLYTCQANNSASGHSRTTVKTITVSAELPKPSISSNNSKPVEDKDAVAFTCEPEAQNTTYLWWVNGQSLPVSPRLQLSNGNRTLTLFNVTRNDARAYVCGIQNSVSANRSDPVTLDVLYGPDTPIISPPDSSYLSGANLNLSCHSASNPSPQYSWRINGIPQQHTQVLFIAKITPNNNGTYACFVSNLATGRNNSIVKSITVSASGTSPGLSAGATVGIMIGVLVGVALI
Briefly: flow cytometry on MKN-45 wt cells (express CEACAM5 and CD47). On the technique in general: In flow cytometry, cells or beads pass a laser one at a time.

Experiment [2] has as its target T2, biotinylated recombinant human CEACAM5 (human, UniProt P06731 35-685, biotin on the C-terminal Avitag).
T2 construct: also called CD66e; not shown: C-terminal Avitag plus hexa-histidine tag, human Fc or mouse Fc
T2 sequence: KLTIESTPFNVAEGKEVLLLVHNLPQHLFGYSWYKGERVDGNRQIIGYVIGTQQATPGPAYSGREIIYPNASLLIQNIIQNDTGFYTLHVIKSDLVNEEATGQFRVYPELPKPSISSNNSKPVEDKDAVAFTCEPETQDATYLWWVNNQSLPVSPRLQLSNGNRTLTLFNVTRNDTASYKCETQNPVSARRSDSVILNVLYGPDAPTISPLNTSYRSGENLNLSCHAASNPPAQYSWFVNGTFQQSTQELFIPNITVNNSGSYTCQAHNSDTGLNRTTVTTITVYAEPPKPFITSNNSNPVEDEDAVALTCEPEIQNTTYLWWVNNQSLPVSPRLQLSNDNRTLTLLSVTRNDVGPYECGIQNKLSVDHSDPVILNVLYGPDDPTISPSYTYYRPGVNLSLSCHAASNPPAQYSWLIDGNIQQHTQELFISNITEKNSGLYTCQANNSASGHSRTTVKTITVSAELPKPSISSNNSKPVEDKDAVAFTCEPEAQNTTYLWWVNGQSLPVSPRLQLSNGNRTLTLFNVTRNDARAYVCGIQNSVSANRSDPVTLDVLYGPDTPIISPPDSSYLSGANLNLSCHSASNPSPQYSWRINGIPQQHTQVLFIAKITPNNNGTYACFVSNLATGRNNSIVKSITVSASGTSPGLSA
Briefly: ELISA; biotinylated recombinant protein on streptavidin plate; bivalent mAb titrated. (In general: ELISA stands for enzyme-linked immunosorbent assay.)

For experiment [3], the target named is T3, recombinant cynomolgus monkey CEACAM5 (cynomolgus monkey (macaca fascicularis)).
T3 construct: also called cyno CEACAM5; cynomolgus CEACAM5
The description is as above.

B1: K2AC58 (bispecific antibody, human IgG1, kappa, lambda)
heavy: not shown
light 1: QSVLTQPPSVSGAPGQRVTISCTGSSSNIGVAHDVHWYQQLPGTAPKLLIYDYSERPSGVPDRFSGSKSGTSASLAITGLQAEDEADYYCQSWDNGPNGLVWVFGGGTKLTVLGQPKAAPSVTLFPPSSEELQANKATLVCLISDFYPGAVTVAWKADSSPVKAGVETTTPSKQSNNKYAASSYLSLTPEQWKSHRSYSCQVTHEGSTVEKTVAPTECS
light 2: not shown
With B1, in experiment [1], the EC50 (commonly the concentration needed to bring the measured effect to its halfway point) turned out to be 20000 pM and the “Emax (MFI)” value was determined as 300000 MFI.

B2: K2AC59 (bispecific antibody, human IgG1, kappa, lambda)
heavy: not shown
light 1: QSVLTQPPSVSGAPGQRVTISCTGSSSNIGVAHDVHWYQQLPGTAPKLLIYDYSERPSGVPDRFSGSKSGTSASLAITGLQAEDEADYYCQSWDNSENGLIYVFGGGTKLTVLGQPKAAPSVTLFPPSSEELQANKATLVCLISDFYPGAVTVAWKADSSPVKAGVETTTPSKQSNNKYAASSYLSLTPEQWKSHRSYSCQVTHEGSTVEKTVAPTECS
light 2: not shown
Regarding B2, in experiment [1], the midpoint of the response, the EC50, lay at 26000 pM and the “Emax (MFI)” value came to 400000 MFI.

B3: AC43 (antibody, human IgG1, kappa, V domains shown)
VH: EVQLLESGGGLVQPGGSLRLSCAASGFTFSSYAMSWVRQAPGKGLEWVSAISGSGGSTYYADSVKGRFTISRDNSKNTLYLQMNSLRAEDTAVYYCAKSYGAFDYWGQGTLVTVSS
VL: DIQMTQSPSSLSASVGDRVTITCQASQNIPRTINWYQQKPGKAPKLLIYDISNLETGVPSRFSGSGSGTDFTFTISSLQPEDIATYYCQQVGLNPELTTFGQGTKVEIKR
notes: Bivalent IgG1 mAb; 6 carries the IgG1 Fc
As to B3, the EC50 is 80 pM in experiment [2] and 700 pM in experiment [3].

B4: AC60 (antibody, human IgG1, kappa, V domains shown)
VH: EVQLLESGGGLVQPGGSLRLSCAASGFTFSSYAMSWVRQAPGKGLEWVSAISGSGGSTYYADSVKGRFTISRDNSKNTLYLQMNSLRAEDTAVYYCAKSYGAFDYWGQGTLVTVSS
VL: DIQMTQSPSSLSASVGDRVTITCQASQNIPRTINWYQQKPGKAPKLLIYDISNLETGVPSRFSGSGSGTDFTFTISSLQPEDIATYYCQQVGLNWDDRAFGQGTKVEIKR
notes: Bivalent IgG1 mAb; 6 carries the IgG1 Fc; 167 is the one used in the embodiments
B4: the values for the EC50 in experiment [2] and in experiment [3] were 13 pM and 60 pM, respectively.

B5: AC63 (antibody, human IgG1, kappa, V domains shown)
VH: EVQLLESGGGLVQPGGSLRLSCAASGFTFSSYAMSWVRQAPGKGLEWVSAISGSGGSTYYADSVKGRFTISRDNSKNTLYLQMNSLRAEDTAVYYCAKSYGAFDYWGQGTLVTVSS
VL: DIQMTQSPSSLSASVGDRVTITCQASQNIPRTINWYQQKPGKAPKLLIYDISNLETGVPSRFSGSGSGTDFTFTISSLQPEDIATYYCQSVTLWPELTTFGQGTKVEIKR
notes: as for B3
Regarding B5, the EC50 in experiment [2] is 16 pM; in experiment [3], 20 pM.

B6: AC66 (antibody, human IgG1, kappa, V domains shown)
VH: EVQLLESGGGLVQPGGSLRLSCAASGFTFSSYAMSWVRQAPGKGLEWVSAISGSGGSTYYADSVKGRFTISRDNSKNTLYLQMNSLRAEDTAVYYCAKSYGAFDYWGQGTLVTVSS
VL: DIQMTQSPSSLSASVGDRVTITCQASQNIPRTINWYQQKPGKAPKLLIYDISNLETGVPSRFSGSGSGTDFTFTISSLQPEDIATYYCQQVTLDPEENTFGQGTKVEIKR
notes: as for B3
In the case of B6, the EC50 in experiment [2] stood at 12 pM; in experiment [3] it was 10 pM.

B7: AC64 (antibody, human IgG1, kappa, V domains shown)
VH: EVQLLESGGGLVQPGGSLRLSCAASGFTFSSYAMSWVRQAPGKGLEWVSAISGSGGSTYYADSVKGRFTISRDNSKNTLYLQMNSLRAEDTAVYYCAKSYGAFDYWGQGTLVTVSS
VL: DIQMTQSPSSLSASVGDRVTITCQASQNIPRTINWYQQKPGKAPKLLIYDISNLETGVPSRFSGSGSGTDFTFTISSLQPEDIATYYCQQVTLEPEELTFGQGTKVEIKR
notes: as for B3
With B7, the EC50 in experiment [2] is 16 pM; in experiment [3], 30 pM.

B8: AC41 (antibody, human IgG1, kappa, V domains shown)
VH: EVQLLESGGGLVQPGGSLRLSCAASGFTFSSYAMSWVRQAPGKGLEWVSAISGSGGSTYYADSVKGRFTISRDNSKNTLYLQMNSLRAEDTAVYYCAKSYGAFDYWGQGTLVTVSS
VL: DIQMTQSPSSLSASVGDRVTITCQASQEIAATLNWYQQKPGKAPKLLIYNYSTLETGVPSRFSGSGSGTDFTFTISSLQPEDIATYYCQQVGLNPENTTFGQGTKVEIKR
notes: as for B3
As for B8, the figures for the EC50 in experiment [2] and in experiment [3] were 300 pM and 600 pM, respectively.

B9: AC42 (antibody, human IgG1, kappa, V domains shown)
VH: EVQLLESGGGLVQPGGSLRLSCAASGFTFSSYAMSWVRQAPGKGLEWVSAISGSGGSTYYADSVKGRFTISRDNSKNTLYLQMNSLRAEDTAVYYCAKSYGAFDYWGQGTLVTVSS
VL: DIQMTQSPSSLSASVGDRVTITCQASQRIARTLNWYQQKPGKAPKLLIYNFSALETGVPSRFSGSGSGTDFTFTISSLQPEDIATYYCQQVGLDPNLTTFGQGTKVEIKR
notes: as for B3
For B9, the values for the 50% effective concentration (EC50) in experiment [2] and in experiment [3] were 100 pM and 600 pM, respectively.

B10: AC62 (antibody, human IgG1, kappa, V domains shown)
VH: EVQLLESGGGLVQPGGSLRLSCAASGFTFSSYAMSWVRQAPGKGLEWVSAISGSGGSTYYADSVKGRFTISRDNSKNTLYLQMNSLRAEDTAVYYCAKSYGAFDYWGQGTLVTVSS
VL: DIQMTQSPSSLSASVGDRVTITCQASQNIPRTINWYQQKPGKAPKLLIYDISNLETGVPSRFSGSGSGTDFTFTISSLQPEDIATYYCQQVTLEPELTTFGQGTKVEIKR
notes: as for B3
Regarding B10, the figures for the EC50 in experiment [2] and in experiment [3] were 12 pM and 10 pM, respectively.

B11: AC65 (antibody, human IgG1, kappa, V domains shown)
VH: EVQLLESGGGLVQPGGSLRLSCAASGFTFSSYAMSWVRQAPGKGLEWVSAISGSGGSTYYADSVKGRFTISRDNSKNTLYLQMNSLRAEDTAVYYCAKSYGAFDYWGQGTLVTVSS
VL: DIQMTQSPSSLSASVGDRVTITCQASQNIPRTINWYQQKPGKAPKLLIYDISNLETGVPSRFSGSGSGTDFTFTISSLQPEDIATYYCGSVTLNPELTTFGQGTKVEIKR
notes: as for B3
For B11, the EC50 in experiment [2] was determined as 14 pM; in experiment [3], 30 pM.

B12: AC61 (antibody, human IgG1, kappa, V domains shown)
VH: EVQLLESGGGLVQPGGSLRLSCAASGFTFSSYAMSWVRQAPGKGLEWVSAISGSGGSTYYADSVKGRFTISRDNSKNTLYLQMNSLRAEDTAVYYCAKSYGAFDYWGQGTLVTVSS
VL: DIQMTQSPSSLSASVGDRVTITCQASQNIPRTINWYQQKPGKAPKLLIYDISNLETGVPSRFSGSGSGTDFTFTISSLQPEDIATYYCQQVTLDPEEMTFGQGTKVEIKR
notes: as for B3
On to B12, for which the EC50 in experiment [2] turned out to be 8 pM; in experiment [3] it was 20 pM.

B13: AC42K2 H-CL1 (bispecific antibody, human IgG1, kappa, lambda)
heavy: not shown
light 1: not shown
light 2: DIQMTQSPSSLSASVGDRVTITCRASQSISSYLNWYQQKPGKAPKLLIYAASSLQSGVPSRFSGSGSGTDFTLTISSLQPEDFATYYCQQMHPRAPKTFGGGTKLTVLGQPKAAPSVTLFPPSSEELQANKATLVCLISDFYPGAVTVAWKADSSPVKAGVETTTPSKQSNNKYAASSYLSLTPEQWKSHRSYSCQVTHEGSTVEKTVAPTECS
notes: CEACAM5xCD47 κλ body, IgG1, common heavy chain; CEACAM arm light chain fully kappa, CD47 arm light chain hybrid
As to B13, in experiment [1], a half-maximal response (EC50) required 129000 pM and the “Emax (MFI)” value turned out to be 1.84e+06 MFI.

B14: AC54 (antibody, human IgG1, lambda, V domains shown)
VH: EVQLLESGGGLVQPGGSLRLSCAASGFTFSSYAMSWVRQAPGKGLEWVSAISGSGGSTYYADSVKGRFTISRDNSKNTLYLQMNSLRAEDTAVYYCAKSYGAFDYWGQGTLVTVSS
VL: QSVLTQPPSVSGAPGQRVTISCTGSSSNIHDVGYVHWYQQLPGTAPKLLIYGASGRPSGVPDRFSGSKSGTSASLAITGLQAEDEADYYCQSYDTRQVVPTPVFGGGTKLTVLG
notes: Bivalent IgG1 mAb; 6 carries the IgG1 Fc; also called CEACAM5 mAb AC54
As to B14, the figures for the EC50 in experiment [2] and in experiment [3] were 30 pM and 20 pM, respectively.

B15: AC53 (antibody, human IgG1, lambda, V domains shown)
VH: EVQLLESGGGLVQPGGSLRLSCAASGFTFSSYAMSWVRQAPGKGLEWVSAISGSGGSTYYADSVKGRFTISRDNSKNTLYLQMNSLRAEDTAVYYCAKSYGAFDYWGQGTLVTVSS
VL: QSVLTQPPSVSGAPGQRVTISCTGSSSNIHDVGYVHWYQQLPGTAPKLLIYGASGRPSGVPDRFSGSKSGTSASLAITGLQAEDEADYYCQSYDGRAVFPTPVFGGGTKLTVLG
notes: as for B3
In the case of B15, the concentration for a half-maximal effect (EC50) in experiment [2] stood at 30 pM; in experiment [3] it was 20 pM.

B16: AC52 (antibody, human IgG1, lambda, V domains shown)
VH: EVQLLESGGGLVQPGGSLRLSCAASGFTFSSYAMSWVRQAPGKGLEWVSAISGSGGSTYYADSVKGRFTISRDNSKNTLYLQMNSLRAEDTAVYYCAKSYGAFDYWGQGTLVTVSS
VL: QSVLTQPPSVSGAPGQRVTISCTGSSSNIHDVGYVHWYQQLPGTAPKLLIYGASGRPSGVPDRFSGSKSGTSASLAITGLQAEDEADYYCQSYDTKREFPTPVFGGGTKLTVLG
notes: as for B3
With B16, the results for the EC50 in experiment [2] and in experiment [3] were 30 pM and 20 pM, respectively.

B17: AC55 (antibody, human IgG1, lambda, V domains shown)
VH: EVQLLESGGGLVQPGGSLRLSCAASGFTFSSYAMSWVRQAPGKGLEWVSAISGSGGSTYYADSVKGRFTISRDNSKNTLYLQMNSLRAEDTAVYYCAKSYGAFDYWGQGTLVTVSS
VL: QSVLTQPPSVSGAPGQRVTISCTGSSSNIHDVGYVHWYQQLPGTAPKLLIYGASGRPSGVPDRFSGSKSGTSASLAITGLQAEDEADYYCQSYDTSAVFPTPVFGGGTKLTVLG
notes: as for B3
With B17, the EC50 in experiment [2] was found to be 30 pM; in experiment [3], 20 pM.

B18: AC45 (antibody, human IgG1, lambda, V domains shown)
VH: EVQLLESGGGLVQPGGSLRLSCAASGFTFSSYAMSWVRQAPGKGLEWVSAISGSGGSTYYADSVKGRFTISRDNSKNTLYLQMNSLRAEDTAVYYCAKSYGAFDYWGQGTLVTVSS
VL: QSVLTQPPSASGTPGQRVTISCSGSSSNIVGVGVNWYQQLPGTAPKLLIYSYNKRPSGVPDRFSGSKSGTSASLAISGLQSEDEADYYCAAYDADMIVPAPVFGGGTKLTVLG
notes: as for B3
On to B18, for which the EC50 in experiment [2] came out at 100 pM; in experiment [3] it was 30 pM.

B19: AC48 (antibody, human IgG1, lambda, V domains shown)
VH: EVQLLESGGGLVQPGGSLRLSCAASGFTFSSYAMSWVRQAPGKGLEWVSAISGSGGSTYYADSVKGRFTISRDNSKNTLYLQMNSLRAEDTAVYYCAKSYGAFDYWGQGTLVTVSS
VL: QSVLTQPPSASGTPGQRVTISCSGSSSNINGVGVNWYQQLPGTAPKLLIYEFNKRPSGVPDRFSGSKSGTSASLAISGLQSEDEADYYCAAYDAARYVPAPVFGGGTKLTVLG
notes: as for B3
In the case of B19, the EC50 in experiment [2] came out at 50 pM; in experiment [3], 40 pM.

B20: AC46 (antibody, human IgG1, lambda, V domains shown)
VH: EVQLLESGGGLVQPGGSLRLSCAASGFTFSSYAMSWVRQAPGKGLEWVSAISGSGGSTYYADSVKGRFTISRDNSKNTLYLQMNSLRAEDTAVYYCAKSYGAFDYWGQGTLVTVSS
VL: QSVLTQPPSASGTPGQRVTISCSGSSSNIVGVGVNWYQQLPGTAPKLLIYSYNKRPSGVPDRFSGSKSGTSASLAISGLQSEDEADYYCAAYDFSLLLPAPVFGGGTKLTVLG
notes: as for B3
With B20, the EC50 in experiment [2] was 70 pM; in experiment [3], 40 pM.

B21: AC47 (antibody, human IgG1, lambda, V domains shown)
VH: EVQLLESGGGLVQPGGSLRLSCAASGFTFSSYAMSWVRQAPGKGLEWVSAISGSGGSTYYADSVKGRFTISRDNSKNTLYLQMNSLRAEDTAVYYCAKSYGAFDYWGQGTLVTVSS
VL: QSVLTQPPSASGTPGQRVTISCSGSSSNINGVGVNWYQQLPGTAPKLLIYGFNSRPSGVPDRFSGSKSGTSASLAISGLQSEDEADYYCAAYDMSTYVPAPVFGGGTKLTVLG
notes: as for B3
On to B21, for which the values for the EC50 in experiment [2] and in experiment [3] were 30 pM and 60 pM, respectively.

B22: AC44 (antibody, human IgG1, lambda, V domains shown)
VH: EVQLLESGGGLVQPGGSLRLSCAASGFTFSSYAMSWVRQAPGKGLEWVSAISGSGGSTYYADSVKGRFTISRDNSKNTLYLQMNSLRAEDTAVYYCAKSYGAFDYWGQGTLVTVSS
VL: QSVLTQPPSASGTPGQRVTISCSGSSSNIVGVGVNWYQQLPGTAPKLLIYSYNKRPSGVPDRFSGSKSGTSASLAISGLQSEDEADYYCAAYDFLPVLPAPVFGGGTKLTVLG
notes: as for B3
Regarding B22, the figures for the EC50 in experiment [2] and in experiment [3] were 90 pM and 70 pM, respectively.
